Experiments:
[1] = biological target: His-tagged ECTV vCD30 protein (vCD30His) (Ectromelia virus (ECTV)); assay: non-reducing SDS-PAGE; purified vCD30His from baculovirus; data not shown
[2] = biological target: endogenous vCD30 protein secreted during ECTV infection (Ectromelia virus (ECTV Naval.Cam)); assay: non-reducing SDS-PAGE and Western blot

Row | Substance | stoichiometry N [1] | stoichiometry N [2]
1 | His-tagged ECTV vCD30 protein (vCD30His) (natural protein) | 3 | –
2 | endogenous vCD30 protein secreted during ECTV infection (natural protein) | – | 3
